From paper PMC3760798

Assays:
[1] = biological target: CBP (CREB-binding protein) (UniProt P45481); test: anti-CBP co-IP from nuclear extract, time course; settings: reference: wild type; sites S467
[2] = biological target: p300 (UniProt B2RWS6); test: anti-p300 co-IP from nuclear extract, time course; settings: reference: wild type; sites S467
[3] = biological target: GB1-tagged RelA-TA2 fragments (all ITC titrations); test: ITC; all ITC titrations taken together (50 mM or 150 mM NaCl); 25°C; 20 mM Tris pH 8.0, 1 mM DTT; single-binding site model

TAZ1 domain of mouse CBP (residues 340–439), sequence (P45481 340-439): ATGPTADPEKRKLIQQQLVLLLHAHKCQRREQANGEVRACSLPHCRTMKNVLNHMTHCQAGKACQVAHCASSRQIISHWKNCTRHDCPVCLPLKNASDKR

Substance	binding against the reference [1]	binding against the reference [2]	stoichiometry N [3]
RelA (p65) (from UniProt Q04207) S467A	weaker	weaker	–
TAZ1 domain of mouse CBP (residues 340–439) (from UniProt P45481 340-439) (domain or fragment)	–	–	0.9 to 1.2
